Measurements published in paper PMC9637222 (Nature Communications, 2022).

Molecular target: T1, InvF (tag-free, purified) (S. Typhimurium, UniProt P69343 1-216)
T1 sequence: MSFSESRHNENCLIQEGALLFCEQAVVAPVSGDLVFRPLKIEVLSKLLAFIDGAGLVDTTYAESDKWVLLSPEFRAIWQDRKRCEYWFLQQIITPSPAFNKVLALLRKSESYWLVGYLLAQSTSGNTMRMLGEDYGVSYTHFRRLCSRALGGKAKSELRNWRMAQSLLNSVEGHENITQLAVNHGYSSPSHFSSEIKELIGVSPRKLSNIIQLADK
Assay: ITC
Conditions: both partners purified

B1: SicA (tag-free, purified) (natural protein)
chain: MDYQNNVSEERVAEMIWDAVSEGATLKDVHGIPQDMMDGLYAHAYEFYNQGRLDEAETFFRFLCIYDFYNPDYTMGLAAVCQLKKQFQKACDLYAVAFTLLKNDYRPVFFTGQCQLLMRKAAKARQCFELVNERTEDESLRAKALVYLEALKTAETEQHSEQEKE
notes: also called wild-type SicA
- binding result: binds
